The source of these data is patent US20040166543A1 (Dana-Farber, published 2004).

In experiment [1] the target is T1, glutathione S-transferase (GST) (UniProt P08515 1-218 = GST). The experiment can be described thus: GST pull-down, anti-MUC1/CD immunoblot (FIG. 1B).
The target in experiment [2] is T1, glutathione S-transferase (GST). The experiment can be described thus: GST pull-down, anti-MUC1/CD immunoblot (FIG. 4A). Background: In western blotting, separated proteins are transferred to a membrane and probed.
Method: The proteins in the eight different reaction mixtures were incubated with either GST or GST fused to β-catenin (“GST-β-Cat”). The resulting mixtures were incubated with glutathione-Sepharose 4B™ beads.
The beads were then added to the phosphorylation reaction mixture (described above) which was incubated for 1 h at 4° C.

T1 sequence (P08515 whole entry): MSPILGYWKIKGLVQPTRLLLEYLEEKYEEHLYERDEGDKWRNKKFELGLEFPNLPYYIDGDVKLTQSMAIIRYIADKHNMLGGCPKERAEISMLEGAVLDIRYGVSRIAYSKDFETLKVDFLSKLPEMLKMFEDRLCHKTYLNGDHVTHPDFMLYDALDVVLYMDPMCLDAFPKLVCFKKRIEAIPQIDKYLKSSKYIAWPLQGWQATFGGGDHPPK

B1: MUC1/CD (purified hexahistidine tagged MUC1 cytoplasmic domain), unphosphorylated (other)
chain: CQCRRKNYGQLDIFPARDTYHPMSEYPTYHTHGRYVPPSSTDRSPYEKVSAGNGGSSLSYTNPAVAATSANL
notes: also called His-MUC1/CD; MUC1/CD (WT); not shown: hexahistidine tag
Take B1: in experiment [1], the binding result is “no binding”.

B2: MUC1/CD phosphorylated by c-Src (incubated with c-Src and ATP) (other)
chain: B1 chain
modifications: phosphotyrosine at 46 (YEKV site) and at other sites that are not named; made in vitro with purified c-Src and ATP
notes: also called phosphorylated MUC1/CD; not shown: hexahistidine tag
Consider B2, for which the binding result in experiment [2] is “no binding”.
